Experimental data as given in patent US9090994B2.

Experiments:
[1] = target: c-Myc-containing recombinant protein; test: SPR; fold change of KD, WT is itself the reference
[2] = target: c-Myc-containing recombinant protein; test: SPR (Biacore T200), c-Myc-containing recombinant protein immobilised, soluble Fab injected at 5-80 nM, 1:1 Langmuir fit

B1: parental murine Fab of aM (murine monoclonal antibody raised against c-Myc peptide) (Fab, V domains shown)
VH: QIQLVQSGPELKKPGETVRISCKASGYTFTTAGMQWVQKMPGKGLKWIGWINTHSGVPKYAEDFKGRFAFSLETSASTAYLQMTNLNNEDTATYFCARGYGKGGYFAMDYWGQGTSVTVSS
VL: DVVMTQIPFSLPVSLGDQASISCRSSQSLVHSNGNTYLHWYVQKPGQSPKLLIYKVSNRFSGVPDRFSGSGSGTYFTLKISRVEAEDLGVYFCSQSTRVPWTFGGGTKLEIK
Fold change [1]: 1 fold | Kd [2]: 110 nM | koff [2]: 0.018 s⁻¹ | kon [2]: 160000 M⁻¹ s⁻¹
